Laboratory results as given in publication PMC2756588.

T1: Abp1, P15891
T1 sequence (P15891 535-592, looked up): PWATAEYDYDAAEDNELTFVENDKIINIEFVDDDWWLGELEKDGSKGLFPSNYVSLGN

T2: Bbc1, P47068
T2 sequence (P47068 1-78, looked up): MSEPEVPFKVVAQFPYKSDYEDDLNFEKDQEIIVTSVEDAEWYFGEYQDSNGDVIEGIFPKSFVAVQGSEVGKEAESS

T3: Boi1, P38041
T3 sequence (P38041 1-86, looked up): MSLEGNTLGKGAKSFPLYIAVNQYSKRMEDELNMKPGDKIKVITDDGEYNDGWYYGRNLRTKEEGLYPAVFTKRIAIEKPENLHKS

T4: Boi2, P39969
T4 sequence (P39969 32-116, looked up): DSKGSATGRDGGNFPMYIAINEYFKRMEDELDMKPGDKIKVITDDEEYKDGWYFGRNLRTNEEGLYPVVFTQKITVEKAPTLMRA

T5: Bud14, P27637
T5 sequence (P27637 247-328, looked up): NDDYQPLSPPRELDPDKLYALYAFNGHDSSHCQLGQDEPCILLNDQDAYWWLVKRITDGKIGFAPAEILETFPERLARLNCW

T6: Bzz1-1, P38822
T6 sequence (P38822 478-572, looked up): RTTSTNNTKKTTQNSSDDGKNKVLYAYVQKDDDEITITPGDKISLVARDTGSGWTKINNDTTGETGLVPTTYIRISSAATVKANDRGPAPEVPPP

T7: Bzz1-2, P38822
T7 sequence (P38822 568-633, looked up): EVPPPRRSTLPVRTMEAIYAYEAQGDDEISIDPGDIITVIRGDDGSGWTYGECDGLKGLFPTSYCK

T8: Cdc25, P04821
T8 sequence (P04821 50-136, looked up): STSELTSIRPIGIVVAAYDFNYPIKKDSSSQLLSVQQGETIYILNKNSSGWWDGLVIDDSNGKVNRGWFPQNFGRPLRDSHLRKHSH

T9: Cyk3, Q07533
T9 sequence (Q07533 1-83, looked up): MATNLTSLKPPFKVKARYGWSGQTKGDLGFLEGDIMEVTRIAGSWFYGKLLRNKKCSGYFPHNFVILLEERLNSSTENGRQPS

T10: Fus1, P11710
T10 sequence (P11710 432-512, looked up): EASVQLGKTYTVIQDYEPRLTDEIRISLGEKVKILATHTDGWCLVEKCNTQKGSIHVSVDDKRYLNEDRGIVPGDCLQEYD

T11: Hof1, Q05080
T11 sequence (Q05080 590-669, looked up): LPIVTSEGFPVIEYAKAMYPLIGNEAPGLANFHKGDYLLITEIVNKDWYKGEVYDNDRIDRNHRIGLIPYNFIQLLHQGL

T12: Hse1, P38753
T12 sequence (P38753 208-285, looked up): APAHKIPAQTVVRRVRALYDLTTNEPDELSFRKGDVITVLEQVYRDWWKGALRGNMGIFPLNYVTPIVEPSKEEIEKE

T13: Lsb1, P53281
T13 sequence (P53281 45-122, looked up): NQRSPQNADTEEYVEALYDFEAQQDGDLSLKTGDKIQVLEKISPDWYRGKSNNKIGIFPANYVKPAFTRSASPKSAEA

T14: Lsb3, P43603
T14 sequence (P43603 385-451, looked up): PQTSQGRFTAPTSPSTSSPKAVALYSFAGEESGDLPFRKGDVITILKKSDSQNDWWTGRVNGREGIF

T15: Lsb4, P32793
T15 sequence (P32793 402-468, looked up): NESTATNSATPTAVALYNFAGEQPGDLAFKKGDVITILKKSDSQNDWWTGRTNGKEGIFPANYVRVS

T16: Myo5, Q04439
T16 sequence (Q04439 1072-1160, looked up): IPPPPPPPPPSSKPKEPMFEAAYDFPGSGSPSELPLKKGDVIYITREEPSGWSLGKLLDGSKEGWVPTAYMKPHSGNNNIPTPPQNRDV

T17: Nbp2, Q12163
T17 sequence (Q12163 103-180, looked up): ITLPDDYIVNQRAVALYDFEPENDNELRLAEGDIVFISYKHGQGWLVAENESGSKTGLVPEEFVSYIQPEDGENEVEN

T18: Pex13, P80667
T18 sequence (P80667 295-386, looked up): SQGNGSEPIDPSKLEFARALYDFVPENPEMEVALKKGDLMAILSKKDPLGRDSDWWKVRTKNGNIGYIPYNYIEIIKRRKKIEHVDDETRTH

T19: Pin3, Q06449
T19 sequence (Q06449 53-122, looked up): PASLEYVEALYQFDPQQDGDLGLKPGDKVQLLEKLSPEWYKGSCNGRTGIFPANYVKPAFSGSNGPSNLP

T20: Sla1-2, P32790
T20 sequence (P32790 60-140, looked up): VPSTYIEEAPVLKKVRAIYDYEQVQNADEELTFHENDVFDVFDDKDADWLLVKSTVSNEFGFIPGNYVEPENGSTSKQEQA

T21: Sla1-3, P32790
T21 sequence (P32790 344-424, looked up): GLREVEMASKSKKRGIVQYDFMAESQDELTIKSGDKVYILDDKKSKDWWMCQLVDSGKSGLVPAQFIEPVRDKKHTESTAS


What was measured:
Test in all cases: SPOT array
Abp1, P15891 = biological target: T1, Abp1, P15891; details: median of control spots 935
Bbc1, P47068 = biological target: T2, Bbc1, P47068; details: median of control spots 796
Bem1-1, P29366 = details: median of control spots 4282
Bem1-2, P29366 = details: median of control spots 4347
Boi1, P38041 = biological target: T3, Boi1, P38041; details: median of control spots 1162
Boi2, P39969 = biological target: T4, Boi2, P39969; details: median of control spots 1161
Bud14, P27637 = biological target: T5, Bud14, P27637; details: median of control spots 956
Bzz1-1, P38822 = biological target: T6, Bzz1-1, P38822; details: median of control spots 4446
Bzz1-2, P38822 = biological target: T7, Bzz1-2, P38822; details: median of control spots 4538
Cdc25, P04821 = biological target: T8, Cdc25, P04821; details: median of control spots 969
Cyk3, Q07533 = biological target: T9, Cyk3, Q07533; details: median of control spots 1451
Fus1, P11710 = biological target: T10, Fus1, P11710; details: median of control spots 1200
GST = details: median of control spots 978
Hof1, Q05080 = biological target: T11, Hof1, Q05080; details: median of control spots 4086
Hse1, P38753 = biological target: T12, Hse1, P38753; details: median of control spots 1727
Lsb1, P53281 = biological target: T13, Lsb1, P53281; details: median of control spots 388
Lsb3, P43603 = biological target: T14, Lsb3, P43603; details: median of control spots 406
Lsb4, P32793 = biological target: T15, Lsb4, P32793; details: median of control spots 397
Myo3, P36006 = details: median of control spots 468
Myo5, Q04439 = biological target: T16, Myo5, Q04439; details: median of control spots 471
Nbp2, Q12163 = biological target: T17, Nbp2, Q12163; details: median of control spots 357
Pex13, P80667 = biological target: T18, Pex13, P80667; details: median of control spots 1341
Pin3, Q06449 = biological target: T19, Pin3, Q06449; details: median of control spots 2171
Rvs167, P39743 = details: median of control spots 2707
Sho1, P40073 = details: median of control spots 1148
Sla1-2, P32790 = biological target: T20, Sla1-2, P32790; details: median of control spots 712
Sla1-3, P32790 = biological target: T21, Sla1-3, P32790; details: median of control spots 5475

Rvs167, P39743, sequence (P39743 419-482): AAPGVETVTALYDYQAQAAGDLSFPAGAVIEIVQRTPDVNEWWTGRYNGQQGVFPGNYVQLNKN
Sho1, P40073, sequence (P40073 287-367): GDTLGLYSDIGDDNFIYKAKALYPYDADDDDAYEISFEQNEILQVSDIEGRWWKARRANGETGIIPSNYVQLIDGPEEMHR
Bem1-2, P29366, sequence (P29366 139-227): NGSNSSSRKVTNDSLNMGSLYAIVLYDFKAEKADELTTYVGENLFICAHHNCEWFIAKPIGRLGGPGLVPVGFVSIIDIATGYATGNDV
Bem1-1, P29366, sequence (P29366 55-141): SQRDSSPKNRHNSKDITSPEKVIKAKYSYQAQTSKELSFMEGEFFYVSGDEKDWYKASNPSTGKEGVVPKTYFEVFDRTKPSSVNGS

| SPOT intensity (Abp1, P15891) | SPOT intensity (Bbc1, P47068) | SPOT intensity (Bem1-1, P29366) | SPOT intensity (Bem1-2, P29366) | SPOT intensity (Boi1, P38041) | SPOT intensity (Boi2, P39969) | SPOT intensity (Bud14, P27637) | SPOT intensity (Bzz1-1, P38822) | SPOT intensity (Bzz1-2, P38822) | SPOT intensity (Cdc25, P04821) | SPOT intensity (Cyk3, Q07533) | SPOT intensity (Fus1, P11710) | SPOT intensity (GST) | SPOT intensity (Hof1, Q05080) | SPOT intensity (Hse1, P38753) | SPOT intensity (Lsb1, P53281) | SPOT intensity (Lsb3, P43603) | SPOT intensity (Lsb4, P32793) | SPOT intensity (Myo3, P36006) | SPOT intensity (Myo5, Q04439) | Binder | other results |
| --- | --- | --- | --- | --- | --- | --- | --- | --- | --- | --- | --- | --- | --- | --- | --- | --- | --- | --- | --- | --- | --- |
| 77 | 14 | 0 | 3 | 0 | 1 | 0 | 1 | 0 | 3 | 1 | 0 | 1 | 0 | 0 | 30 | 432 | 424 | 92 | 14 | APPPPPRRATPEKKP | SPOT intensity (Nbp2, Q12163): 0; SPOT intensity (Pex13, P80667): 68; SPOT intensity (Pin3, Q06449): 8; SPOT intensity (Rvs167, P39743): 525; SPOT intensity (Sho1, P40073): 21; SPOT intensity (Sla1-2, P32790): 0; SPOT intensity (Sla1-3, P32790): 0 |
| 23 | 8 | 1 | 1 | 1 | 0 | 0 | 0 | 1 | 2 | 0 | 0 | 1 | 1 | 0 | 266 | 706 | 965 | 99 | 18 | SSAAPPPPPRRATPE | SPOT intensity (Nbp2, Q12163): 0; SPOT intensity (Pex13, P80667): 58; SPOT intensity (Pin3, Q06449): 5; SPOT intensity (Rvs167, P39743): 1790; SPOT intensity (Sho1, P40073): 3; SPOT intensity (Sla1-2, P32790): 0; SPOT intensity (Sla1-3, P32790): 0 |
| 3 | 0 | 1 | 1 | 0 | 0 | 0 | 0 | 3 | 0 | 0 | 0 | 0 | 950 | 184 | 0 | 923 | 776 | 0 | 0 | QQEQNTPPLPPKPKS | SPOT intensity (Nbp2, Q12163): 0; SPOT intensity (Pex13, P80667): 79; SPOT intensity (Pin3, Q06449): 0; SPOT intensity (Rvs167, P39743): 0; SPOT intensity (Sho1, P40073): 14; SPOT intensity (Sla1-2, P32790): 1; SPOT intensity (Sla1-3, P32790): 3 |
| 141 | 2 | 0 | 0 | 0 | 0 | 0 | 0 | 0 | 0 | 0 | 0 | 0 | 0 | 3 | 285 | 941 | 1360 | 102 | 35 | LPMNIQPDLPPRKIM | SPOT intensity (Nbp2, Q12163): 6; SPOT intensity (Pex13, P80667): 35; SPOT intensity (Pin3, Q06449): 175; SPOT intensity (Rvs167, P39743): 2810; SPOT intensity (Sho1, P40073): 29; SPOT intensity (Sla1-2, P32790): 6; SPOT intensity (Sla1-3, P32790): 0 |

Second part, the binder before the results:

| Binder | SPOT intensity (Abp1, P15891) | SPOT intensity (Bbc1, P47068) | SPOT intensity (Bem1-1, P29366) | SPOT intensity (Bem1-2, P29366) | SPOT intensity (Boi1, P38041) | SPOT intensity (Boi2, P39969) | SPOT intensity (Bud14, P27637) | SPOT intensity (Bzz1-1, P38822) | SPOT intensity (Bzz1-2, P38822) | SPOT intensity (Cdc25, P04821) | SPOT intensity (Cyk3, Q07533) | SPOT intensity (Fus1, P11710) | SPOT intensity (GST) | SPOT intensity (Hof1, Q05080) | SPOT intensity (Hse1, P38753) | SPOT intensity (Lsb1, P53281) | SPOT intensity (Lsb3, P43603) | SPOT intensity (Lsb4, P32793) | SPOT intensity (Myo3, P36006) | SPOT intensity (Myo5, Q04439) | other results |
| --- | --- | --- | --- | --- | --- | --- | --- | --- | --- | --- | --- | --- | --- | --- | --- | --- | --- | --- | --- | --- | --- |
| EAEEAAPQLPSRSSA | 0 | 0 | 0 | 0 | 1 | 1 | 0 | 2 | 2 | 2 | 0 | 1 | 0 | 0 | 0 | 62 | 956 | 529 | 0 | 0 | SPOT intensity (Nbp2, Q12163): 0; SPOT intensity (Pex13, P80667): 6; SPOT intensity (Pin3, Q06449): 2; SPOT intensity (Rvs167, P39743): 75; SPOT intensity (Sho1, P40073): 0; SPOT intensity (Sla1-2, P32790): 0; SPOT intensity (Sla1-3, P32790): 2 |
| EQEEIAPSLPSRNSI | 0 | 0 | 1 | 1 | 0 | 1 | 0 | 0 | 1 | 1 | 1 | 0 | 2 | 2 | 0 | 20 | 998 | 517 | 0 | 0 | SPOT intensity (Nbp2, Q12163): 0; SPOT intensity (Pex13, P80667): 417; SPOT intensity (Pin3, Q06449): 0; SPOT intensity (Rvs167, P39743): 31; SPOT intensity (Sho1, P40073): 0; SPOT intensity (Sla1-2, P32790): 0; SPOT intensity (Sla1-3, P32790): 0 |
